Drawing on paper PMC3346141, this text covers Hcp signal relative to TssL-His in the bound fraction, H2O-treated cells for one substance.

In this assay the target is TssL-His expressed in A. tumefaciens ΔtssMΔtssL (pTrc-TssL-His) (Agrobacterium tumefaciens). Put plainly: pull-down.

As to “Hcp, endogenous in A. tumefaciens (natural protein)”, the Hcp signal relative to TssL-His in the bound fraction, H2O-treated cells turned out to be 0.21.
